Experiment [1] deals with sfGFP-SpyTag003 Loop A. In words: isopeptide bond formation, 5 µM each, PBS pH 7.5, 25 °C, SDS-PAGE densitometry.
For experiment [2], the target named is Gre2p-SpyTag003 Loop B (Saccharomyces cerevisiae) (UniProt Q12068). The description is as above.
In experiment [3] the target is sfGFP-SpyTag003 Loop A. The experiment can be described thus: isopeptide bond formation, SDS-PAGE densitometry; reference SpyTag003 as a terminal fusion with SpyCatcher003.

Sequence of UniProt Q12068 (Q12068 other isoform, or with tags, fused parts or gaps): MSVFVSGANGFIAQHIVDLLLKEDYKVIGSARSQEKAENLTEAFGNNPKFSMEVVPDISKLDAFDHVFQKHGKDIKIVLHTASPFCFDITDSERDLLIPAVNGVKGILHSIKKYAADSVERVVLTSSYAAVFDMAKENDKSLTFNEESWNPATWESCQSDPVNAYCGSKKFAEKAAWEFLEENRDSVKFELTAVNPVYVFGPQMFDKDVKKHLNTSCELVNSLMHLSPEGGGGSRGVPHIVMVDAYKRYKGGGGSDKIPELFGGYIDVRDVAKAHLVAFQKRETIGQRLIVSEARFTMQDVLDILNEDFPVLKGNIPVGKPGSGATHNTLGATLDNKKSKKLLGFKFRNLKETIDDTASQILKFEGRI

For the substance SpyCatcher003 (designed binder), the results for the second-order rate constant in experiment [1] and in experiment [2] were 87 M⁻¹ s⁻¹ and 93 M⁻¹ s⁻¹, respectively. In experiment [3], the fold slower than SpyTag003 as a terminal fusion came out at 6000 fold.

(Values after patent US20240182530A1.)
